According to paper PMC3325213 (PLoS Pathogens, 2012):

Molecular target: the molecule itself
Assay: SEC; analytical gel filtration, Superdex-200 10/300GL, 50 mM Tris pH 7, 500 mM NaCl, 5% glycerol; mass against protein standards

B1: Tsi2–H6 (C-terminal hexahistidine-tagged Tsi2) (natural protein)
chain: MNLKPQTLMVAIQCVAARTRELDAQLQNDDPQNAAELEQLLVGYDLAADDLKNAYEQALGQYSGLPPYDRLIEEPAS
notes: source: E. coli BL21 pLysS, purified (HisTrap FF, Sephacryl S-200 size exclusion); not shown: His6, C-terminal, kept
Q: How did the “stoichiometry N” value turn out when B1 was run?
A: 2
